In paper PMC5634638:
Where “and” joins values, the source holds several entries; their conditions need not be identical. Identical values can stand only once.

Tests used:
[1] = molecular target: Schizosaccharomyces pombe ribosome (S. pombe); assay: co-sedimentation; ribosome 1 μM and NatA 1.2 μM layered on Buffer G with 30% sucrose, ultracentrifuged; pellet and supernatant on SDS-PAGE
[2] = molecular target: Schizosaccharomyces pombe ribosome (S. pombe); assay: co-sedimentation; NatA constant at 0.5 μM, ribosome 0.1–11 μM, 30% sucrose cushion; anti-His western blot of Naa15, proportion in the pellet quantified; fit assumes 1:1

Substance | stoichiometry N [1] | Kd [2] | percent pulldown (highest reached at the ribosome concentrations used) [2]
NatA (wild type; Naa15-Naa10 complex of Schizosaccharomyces pombe) | 1.13 and 1.28 | 1100 nM | 
NatA K9E (Naa15 K27E, K28E, K31E, K605E, K606E, K609E, K610E, K612E, K613E with Naa10) (complex) |  |  | < 30%
